Reference: patent publication US20170151339A1 (priority 2014, published 2017)
Where a SMILES comes first, the peptide text is derived from it. Bridges are numbered along the chain shown (N, C = ends). [ ]: non-standard residue; d: D form. The star is where a group is joined. X1 = COc1cc2cc(c1Cl)N(C)C(=O)[C@H](OC(=O)[C@H](C)N(C)C(=O)CCS*)[C@]1(C)O[C@H]1[C@H](C)[C@@H]1C[C@@](O)(NC(=O)O1)[C@H](OC)/C=C/C=C(\C)C2; Thr(ol) = C[C@@H](O)[C@H](N)CO

Tests used:
[1] = tested on: NCI-H524 (ATCC) human lung cancer cells; assay type: cell-based; conditions: for IC50: treated 2 hours, further incubated 70 hours
Protocol: Conjugates were assessed in an in vitro assay evaluating inhibition of cell proliferation. NCI-H524 (ATCC) human lung cancer cells were plated in 96 well, V-bottomed plates (Costar) at a concentration of 5,000 cells/well and 24 hours later were treated with compound for 2 hours and further incubated 70 hours. Compound starting dose was 20 μM and three fold serial dilutions were done for a total of ten points. After 2 hours of treatment, cells were spun down, the drug containing media was removed, and fresh complete medium was added and used to resuspend the cells, which were spun again. After removal of the wash media, the cells were resuspended in complete medium, then transferred into white walled, flat bottomed 96 well plates. […] Proliferation was measured using CellTiter Glo reagent using the standard protocol (Promega) and a Glomax multi+detection system (Promega). Percent proliferation inhibition was calculated using the following formula: % inhibition=(control−treatment)/control*100. Control is defined as vehicle alone. IC50 curves were generated using the nonlinear regression analysis (four parameter) with GraphPad Prism 6.

[2] = Rat pharmacokinetics of nanoparticle formulations of 1 and 2; assay type: in vivo; conditions: rats, 1 mg/kg IV bolus, plasma, dose normalized
Protocol: Nanoparticles are typically formulated for in vivo delivery in 10% sucrose and free drug formulations varied, but are typically dosed in 10% Solutol®/10% sucrose, or physiological saline. In this example conjugate 1 without nanoparticle formulation was dosed as a solution in 20% propyleneglycol/80% aqueous sucrose (10%).
(§1) For rat pharmacokinetic studies using nanoparticles as described herein, a 0.1 mg/mL solution was dosed at 10 mL/kg such that a 1 mg/kg IV bolus dose was introduced by tail vein injection into rats. Following compound administration, blood was collected at 0.083 hours, 0.25 hours, 0.5 hours, 1 hour, 2 hours, 4 hours, 8 hours, and 24 hours post dose into lithium heparin coated vacuum tubes. Tubes were inverted for 5 minutes and then placed on wet ice until centrifuged for 5 minutes at 4° C. at 6000 rpm. Plasma was harvested, frozen at −80° C. and shipped to for bioanalysis on dry ice.
50 uL of rat plasma was precipitated with 300 uL of DMF and the resulting supernatant was measured for compound content by LC-MS/MS electrospray ionization in the positive mode.
Representative dose normalized rat pharmacokinetic curves for conjugate 1 and nanoparticle formulations of conjugate 1 are shown in FIG. 3.
Representative dose normalized rat pharmacokinetic curves for conjugate 2 and nanoparticle formulations of conjugate 2 are shown in FIG. 4.

[3] = Rat pharmacokinetics of nanoparticle formulations of 1′; assay type: in vivo; conditions: rats, 1 mg/kg IV bolus, plasma, dose normalized, Table 3
Protocol: Nanoparticles described herein were typically formulated in 10% sucrose and free drug formulations were generally formulated typically dosed in 10% Solutol®/l 0% sucrose, or physiological saline.
as §1, with “For” for “For rat”, “studies,” for “studies using nanoparticles as described herein,”, “post-dose” for “post dose”
50 uL aliquots of rat plasma were precipitated with 300 uL of DMF and the resulting supernatant was measured for compound content by LC-MS/MS electrospray ionization in the positive mode.

[4] = Solubility in aqueous media containing Tween 80; assay type: physicochemical; conditions: aqueous Tween 80
Excerpt: In certain formulations, conjugate 1′ was used without any changes to its native lipophilicity (free conjugate). […] The tendency of conjugate 1 to retain in the nanoparticle despite a high aqueous solubility in Tween/water could be due to the high lipophilicity of cabazitaxel and its compatibility/miscibility with the polymeric matrix. The presence of leucine, proline, tryptophan and tyrosine in the LHRH peptide may also assist in the interaction of the conjugate with the polymeric matrix.
In certain formulations, conjugate 1 was used without any changes to its native lipophilicity (free conjugate). […] Without committing to any particular theory, the tendency of conjugate 1 to retain in the nanoparticle despite a high aqueous solubility in Tween®/water could be due to the high lipophilicity of cabazitaxel and its compatibility/miscibility with the polymeric matrix. The presence of two phenylalanine amino acids in the octreotide peptide may also assist in the interaction of the conjugate with the polymeric matrix.
In some formulations, conjugate 2 was used without any changes to its native lipophilicity (free conjugate). […] The tendency of 2 to be retained in the nanoparticle was reduced compared to 1.

[5] = Tolerability in rat PK study of cabazitaxel-RGD nanoparticles; assay type: in vivo; conditions: rats, 1 mg/kg dose IV
Protocol: as §1, with “PK studies,” for “rat pharmacokinetic studies using nanoparticles as described herein,”, “rats” for “rats.”, “h,” for “hours,”, “h,” for “hour,”, “h” for “hours”

[6] = Pharmacokinetics of cabazitaxel-RGD nanoparticles in rats; assay type: in vivo; conditions: rat, 1 mg/kg IV bolus, plasma
Protocol: Nanoparticles are typically formulated in 10% sucrose and free drug formulations varied, but are typically dosed in 10% SOLUTOL®/10% sucrose, or physiological saline.
as §1, with “PK studies,” for “rat pharmacokinetic studies using nanoparticles as described herein,”, “rats” for “rats.”, “h,” for “hours,”, “h,” for “hour,”, “h” for “hours”
50 uL of rat plasma were precipitated with 300 uL of DMF and the resulting supernatant was measured for compound content by LC-MS/MS electrospray ionization in the positive mode.

COc1cc2cc(c1Cl)N(C)C(=O)C[C@H](OC(=O)[C@H](C)N(C)C(=O)CCSSCCC(=O)NCCOCCOCCOCCOCCOCCOCCOCCOCCC(=O)N[C@H](Cc1ccccc1)C(=O)N[C@H]1CSSC[C@@H](C(=O)N[C@H](CO)[C@@H](C)O)NC(=O)[C@H]([C@@H](C)O)NC(=O)[C@H](CCCCN)NC(=O)[C@@H](Cc3c[nH]c4ccccc34)NC(=O)[C@H](Cc3ccccc3)NC1=O)[C@]1(C)O[C@H]1[C@H](C)[C@@H]1C[C@@](O)(NC(=O)O1)[C@H](OC)/C=C/C=C(\C)C2 [Conjugate 6]
IC50 [1]: 234 nM

COc1cccc2c1C(=O)c1c(O)c3c(c(O)c1C2=O)C[C@@](O)(C(=O)COC(=O)CCCC(=O)N[C@H](Cc1ccccc1)C(=O)N[C@H]1CSSC[C@@H](C(=O)N[C@H](CO)[C@@H](C)O)NC(=O)[C@H]([C@@H](C)O)NC(=O)[C@H](CCCCN)NC(=O)[C@@H](Cc2c[nH]c4ccccc24)NC(=O)[C@H](Cc2ccccc2)NC1=O)C[C@@H]3O[C@H]1C[C@H](N)[C@H](O)[C@H](C)O1 [Example 2]
AUC(0-inf) ([2]; conjugate 2 and its nanoparticles, Table 12): 14.3 µM·h

CO[C@H]1C(=O)[C@]2(C)[C@@H](OC)C[C@H]3OC[C@@]3(OC(C)=O)[C@H]2[C@H](OC(=O)c2ccccc2)[C@]2(O)C[C@H](OC(=O)[C@H](OC(=O)OCCSSCCC(=O)N[C@H](Cc3ccccc3)C(=O)N[C@H]3CSSC[C@@H](C(=O)N[C@H](CO)[C@@H](C)O)NC(=O)[C@H]([C@@H](C)O)NC(=O)[C@H](CCCCN)NC(=O)[C@@H](Cc4c[nH]c5ccccc45)NC(=O)[C@H](Cc4ccccc4)NC3=O)[C@@H](NC(=O)OC(C)(C)C)c3ccccc3)C(C)=C1C2(C)C [Conjugate 1]
IC50 [1]: 110 nM
AUC(0-inf) [3]: 2.19 µM·h
AUC(0-inf) ([2]; conjugate 1 and its nanoparticles, Table 11): 18.3 µM·h
solubility [4]: > 7000 µg/mL
solubility in aqueous media containing surfactant [4]: high solubility

COc1cc2cc(c1Cl)N(C)C(=O)[C@H](OC(=O)[C@H](C)N(C)C(=O)CCSSC[C@H](N)C(=O)N[C@@H](CCCCN)C(=O)N[C@@H](CCCCN)C(=O)N[C@@H](CCCCN)C(=O)N[C@@H](CCCCN)C(=O)N[C@H](Cc1ccccc1)C(=O)N[C@H]1CSSC[C@@H](C(=O)N[C@H](CO)[C@@H](C)O)NC(=O)[C@H]([C@@H](C)O)NC(=O)[C@H](CCCCN)NC(=O)[C@@H](Cc3c[nH]c4ccccc34)NC(=O)[C@H](Cc3ccccc3)NC1=O)[C@]1(C)O[C@H]1[C@H](C)[C@@H]1C[C@@](O)(NC(=O)O1)[C@H](OC)/C=C/C=C(\C)C2 [Conjugate 7] (H-C(X1)KKKK[dF]CF[dW]KTC[Thr(ol)]; disulfide 7-12)
IC50 [1]: 955 nM

CC[C@H](C)[C@@H]([C@@H](CC(=O)N1CCC[C@H]1[C@H](OC)[C@@H](C)C(=O)N[C@H](C)[C@@H](O)c1ccccc1)OC)N(C)C(=O)[C@@H](NC(=O)[C@H](C(C)C)N(C)C(=O)OCc1ccc(NC(=O)[C@H](CCCNC(N)=O)NC(=O)[C@@H](NC(=O)CCCCCN2C(=O)CC(SCCC(=O)N[C@H](Cc3ccccc3)C(=O)N[C@H]3CSSC[C@@H](C(=O)N[C@H](CO)[C@@H](C)O)NC(=O)[C@H]([C@@H](C)O)NC(=O)[C@H](CCCCN)NC(=O)[C@@H](Cc4c[nH]c5ccccc45)NC(=O)[C@H](Cc4ccccc4)NC3=O)C2=O)C(C)C)cc1)C(C)C (stereo partly drawn) [Conjugate 5]
IC50 [1]: 433 nM

COc1cc2cc(c1Cl)N(C)C(=O)C[C@H](OC(=O)[C@H](C)N(C)C(=O)CCSSCCC(=O)N[C@H](Cc1ccccc1)C(=O)N[C@H]1CSSC[C@@H](C(=O)N[C@H](CO)[C@@H](C)O)NC(=O)[C@H]([C@@H](C)O)NC(=O)[C@H](CCCCN)NC(=O)[C@@H](Cc3c[nH]c4ccccc34)NC(=O)[C@H](Cc3ccccc3)NC1=O)[C@]1(C)O[C@H]1[C@H](C)[C@@H]1C[C@@](O)(NC(=O)O1)[C@H](OC)/C=C/C=C(\C)C2 [Conjugate 4]
IC50 [1]: 229 nM

CCCCN(CCSSCCC(=O)N[C@H](Cc1ccccc1)C(=O)N[C@H]1CSSC[C@@H](C(=O)N[C@H](CO)[C@@H](C)O)NC(=O)[C@H]([C@@H](C)O)NC(=O)[C@H](CCCCN)NC(=O)[C@@H](Cc2c[nH]c3ccccc23)NC(=O)[C@H](Cc2ccccc2)NC1=O)C(=O)O[C@@H](C(=O)O[C@H]1C[C@@]2(O)[C@@H](OC(=O)c3ccccc3)[C@@H]3[C@]4(OC(C)=O)CO[C@@H]4C[C@H](OC)[C@@]3(C)C(=O)[C@H](OC)C(=C1C)C2(C)C)[C@@H](NC(=O)OC(C)(C)C)c1ccccc1 [Conjugate 3]
IC50 [1]: > 20000 nM

C[C@@H](O)[C@@H]1NC(=O)[C@H](CCCCN)NC(=O)[C@@H](Cc2c[nH]c3ccccc23)NC(=O)[C@H](Cc2ccccc2)NC(=O)[C@@H](NC(=O)[C@H](N)Cc2ccccc2)CSSC[C@@H](C(=O)N[C@H](CO)[C@@H](C)O)NC1=O [Octreotide, reference compound]
effect on cell proliferation ([1]; octreotide alone): no significant effect

CCCCN(CCSSC[C@@H]1NC(=O)[C@@H](Cc2ccccc2)NC(=O)[C@H](CC(=O)O)NC(=O)CNC(=O)[C@H](CCCNC(=N)N)NC1=O)C(=O)O[C@@H](C(=O)OC1C[C@@]2(O)[C@@H](OC(=O)c3ccccc3)[C@@H]3[C@]4(OC(C)=O)CO[C@@H]4C[C@H](OC)[C@@]3(C)C(=O)[C@H](OC)C(=C1C)C2(C)C)[C@@H](NC(=O)OC(C)(C)C)c1ccccc1 (stereo partly drawn) [BT-568]
tolerability observations post dose [5]: lethargy and labored breathing were observed immediately post dose in all three rats
mortality ([5]; three rats): one of the three animals died
AUC [6]: 5.3 µM·h
